Experimental data reported in patent US11111484B2, “Streptococcus bacteriophage lysins for detection and treatment of gram positive bacteria” (priority 2011, dated 2021).
“Also recorded” adds a separate entry of the source.

Tests used:
[1] = PlySs2 solubility / concentrated solution; type: physicochemical; conditions: ≈20 mg/ml solution
Protocol: The aforementioned preparation led to a highly pure lysin preparation in just two chromatographic steps (FIG. 6). With a predicted pi of 9.01, PlySs2 flowed directly through the DEAE column at pH=7.4 leaving the bulk of the contaminant proteins stuck to the DEAE column. PlySs2 eluted cleanly in the shoulder of the flow through and at 17 mM NaCl, being purified from proteins that rapidly flowed through the CM resin. This preparation yielded ≈60 mg of protein per liter of E. coli culture at ≈1.5 mg/ml with >99% purity. The yield increased to ≈150 mg per liter of E. coli culture at ≈2.0 mg/ml with >90% purity when the CM column step was forwent. If necessary, the latter product was: dialyzed (into 5 mM PB, 15 mM NaCl); lyophilized; reconstituted (at 10% of the original volume); centrifuged; and filter-sterilized (to remove any insoluble material). […] PlySs2 can be produced more efficiently, and at a higher concentration, than many published lysins (Daniel A et al (2010) Antimicrob Agents Chemother 54(4):1602-1612; Wang, Y. et al (2009) Curr Microbiol 58(6):609-615; Nelson, D et al (2006) Proc Natl Acad Sci USA 103(28):10765-10770).
PlySs2 is more tractable and stable than previously developed lysins. PlySs2 preparation is straightforward, yielding large quantities in few steps. In addition, a highly soluble lysin is essential, because it allows for ready use at high concentrations. […]

S. suis strain 7997 = test: PlySs2 OD600 lytic activity test, various concentrations; type: cell-based, Streptococcus suis
MRSA [2] = test: MRSA mouse sepsis model; type: in vivo, FVB/NJ mice
Protocol: PlySs2 lysin activity against S. aureus has been further evaluated in an MRSA mouse sepsis model. In the MRSA mouse sepsis model, susceptible mice (FVB/NJ mice, weight range 15-20 g) were injected with 500 μL of 5×10^5 (approx LD100) MRSA cells/mL in 5% hog gastric mucin in PBS intraperitoneally (IP). After 3 hours, all of the mice are bacteremic with MRSA in their organs (including spleen, liver, kidney, and heart/blood). To determine PlySs2 activity in this model, 500 μL PlySs2 at 2 mg/mL was injected IP 3 hours after injecting MRSA. […] Control mice were injected with 500 μL PBS. Survival was evaluated over ten days. The control mice die within 18-20 hours.

MRSA [3] = test: MIC studies; type: cell-based, Staphylococcus aureus
Protocol: The Wiegand, et al. protocol to determine minimum inhibitory concentrations was followed with adjustments detailed below. A final suspension of ≈5×10^5 cells/ml in MHB (or BHI for S. pyogenes) resulted after Sterile-filtered lysin or vehicle was added at the appropriate concentration. These tests were distributed within a 96-well microtiter plate. The MIC's were determined, in this experiment, by detection of pellet formation in the bottom of rounded polysterene plate wells. They were also corroborated colorimetrically with alamarBlue®.

[4] = test system: vancomycin intermediate sensitivity Staphylococcus aureus (VISA) and vancomycin resistant Staphylococcus aureus (VRSA) strains; test: in vitro tests / standard MIC analysis of staphylococci (FIG. 18); type: cell-based; conditions: comparable in vitro tests
Protocol: FIG. 18. PlySS2 was tested by standard MIC analysis for its ability to kill strains of staphylococci. Included in the testing were resistant staphylococci such as Vancomycin resistant (VRSA), Vancomycin intermediate (VISA) and methicillin resistant (MRSA) staphylococci. The three VRSA strains tested represent half of all known isolates.

S. suis 7997 = test: PlySs2 biochemical characterization, turbidity reduction (OD600)
S. dysgalactiae 21597 = test: ΔPlySs1 OD600 lysis, 1 hr, optimal buffering conditions; type: cell-based, Streptococcus dysgalactiae
S. equi 700400 = test: as above; type: cell-based, Streptococcus equi

B1: PlySs2: Streptococcus suis prophage lysin, SEQ ID NO:3; N-terminal CHAP domain and C-terminal SH3-type 5 domain (protein, listed as Streptococcus suis)
chain: MTTVNEALNNVRAQVGSGVSVGNGECYALASWYERMISPDATVGLGAGVGWVSGAIGDTISAKNIGSSYNWQANGWTVSTSGPFKAGQIVTLGATPGNPYGHVVIVEAVDGDRLTILEQNYGGKRYPVRNYYSAASYRQQVVHYITPPGTVAQSAPNLAGSRSYRETGTMTVTVDALNVRRAPNTSGEIVAVYKRGESFDYDTVIIDVNGYVWVSYIGGSGKRNYVATGATKDGKRFGNAWGTFK
activity after lyophilization and reconstitution to concentrated solution [1]: retained the concentration-adjusted activity
concentration giving acute lytic activity (S. suis strain 7997): ≥ 8 µg/mL
survival evaluated over ten days (MRSA [2]; 500 μL PlySs2 at 2 mg/mL IP 3 hours after MRSA): remarkable survival
mice cleared of bacteremia (survival over 10 days) (MRSA [2]; MRSA bacteremia, FIG. 24): 95%
minimum inhibitory concentration (MIC) (MRSA [3]): 16 µg/mL
effectiveness against VISA and VRSA [4]: similarly effective
consecutive room temperature to −80° C. freeze-thaws without effect on activity (S. suis 7997): 10
effect of NaCl on bacteriolysis (S. suis 7997; 0-1000 mM NaCl, constant enzyme concentration): bacteriolysis decreased from 0-1000 mM NaCl
effect of EDTA on lysis (S. suis 7997; 15 mM Na3PO4, pH 8.0, various EDTA concentrations): impeded PlySs2-induced lysis
activity after 15 days of 4° C. incubation (S. suis 7997; 4° C., 15 days): no observable decrease in activity; also recorded: stable
activity after incubation at 37° C. for 24 hours (S. suis 7997; 37° C., 24 hours): retained full activity; also recorded: stable
stability up to 24 hours at 37° C. in buffer (S. suis 7997; 37° C., 24 hours, killing of strain 7997): > 90%
activity after 48-hour 37° C. incubation (S. suis 7997; 37° C., 48 hours): diminished activity
activity maintained after 48 hours at 37° C. (S. suis 7997; 37° C., 48 hours): at least 50%
temperature at which activity completely abolished (S. suis 7997; 30 min incubation): 60 °C
pH of maximal lysis in BTP (S. suis 7997; BTP buffer pH 7.0-9.7): 9.7
acute activity up to pH (S. suis 7997; Bis-tris propane (BTP) buffer): ≤ 9.7
activity down to pH (S. suis 7997; PlySs2 32 μg/ml): ≥ 6.0
effect of excess DTT on activity (S. suis 7997; data not shown): no impact
pH of strongest activity (S. suis 7997; phosphate/citrate buffer pH 4.6-8.0, PlySs2 32 μg/ml): 8.0
activity retained on storage in buffer at −80° C. (S. suis 7997; up to at least 7 months at −80° C.): ~100%
NaCl concentration of greatest activity (S. suis 7997; various NaCl concentrations): 0 mM

B2: ΔPlySs1: truncated PlySs1 lysin, SEQ ID NO:2, N-terminal 254 amino acids: only N-terminal enzymatic and central binding domains (protein, listed as Streptococcus suis)
chain: MTINLETSIRWMSDRVGKVSYSMDYRNGPNSYDCSSAVYYALMAGGAISAGWAVNTEYMHDWLIRNGYVLVAENKPFNAQRHDVCILGKRGYSSGAGGHVVIFVDNVNVIHCNYARNGISIDNYNQVHRGMYYYLYRPANQPSISNKSLDQLVKETLAGVHGNGDTRKASLGSQYEAVMAVINGKASASEKSDEELAREVLAGKHGAGEDRKRSLGPRYEPVQAKVNELLKAKEKPSETAKNEPQTVQFKEDGDL
lysis value after 1 hr (treated/untreated OD600 ratio) (S. dysgalactiae 21597; 6.5 μg/ml): 0.26
lysis value after 1 hr (treated/untreated OD600 ratio) (S. dysgalactiae 21597; 13 μg/ml): 0.18
lysis value after 1 hr (treated/untreated OD600 ratio) (S. dysgalactiae 21597; 30 μg/ml): 0.12
lysis value after 1 hr (treated/untreated OD600 ratio) (S. dysgalactiae 21597; 65 μg/ml): 0.10
lysis value after 1 hr (treated/untreated OD600 ratio) (S. dysgalactiae 21597; 130 μg/ml): 0.09
lysis value after 1 hr (treated/untreated OD600 ratio) (S. equi 700400; 6.5 μg/ml): 0.48
lysis value after 1 hr (treated/untreated OD600 ratio) (S. equi 700400; 13 μg/ml): 0.25
lysis value after 1 hr (treated/untreated OD600 ratio) (S. equi 700400; 30 μg/ml): 0.15
lysis value after 1 hr (treated/untreated OD600 ratio) (S. equi 700400; 65 μg/ml): 0.07
lysis value after 1 hr (treated/untreated OD600 ratio) (S. equi 700400; 130 μg/ml): 0.09
